{"source": "patent US20240317872A1", "about": "(WUXI BIOLOGICS IRELAND, published 2024)", "binders": {"B1": {"name": "T8311-U14T2.G25R-54.uIgG1 (bispecific antibody)", "heavy": "not shown", "light 1": "SYELTQPPSVSVSPGQTASITCSGSELPKRYAYWYQQKPGQSIVRVIYKDSERPSGISERFSGSSSGNTATLTISGTQAMDEADYYCSSTYGDRKLPIFGGGTKLTVLGQPKAAPSVTLFPPSSEELQANKATLVCLISDFYPGAVTVAWKADSSPVKAGVETTTPSKQSNNKYAASSYLSLTPEQWKSHKSYSCQVTHEGSTVEKTVAPTECS", "light 2": "SYVLTQPPSVSVAPGQTARMTCGGDNIGIKIVHWYQQKAGQAPVLVVYDDNDRPSGIPDRFSGSNSGNTATLTISRVAAGDEADYYCQVWDRRSDHVVFGGGTKLTVLPDIQNPDCAVYQLRDSKSSDKSVCLFTDFDSQTQVSQSKDSDVYITDKCVLDMRSMDFKSNSAVAWSQKSDFACANAFQNSIICEDTFFPS", "notes": "also called T8311-54"}}, "molecular_target": "T1, Human PD-L1 (human, UniProt Q9NZQ7 19-290)", "T1 construct": "whole, on cells; also called target-A", "T1 sequence (Q9NZQ7 19-290)": "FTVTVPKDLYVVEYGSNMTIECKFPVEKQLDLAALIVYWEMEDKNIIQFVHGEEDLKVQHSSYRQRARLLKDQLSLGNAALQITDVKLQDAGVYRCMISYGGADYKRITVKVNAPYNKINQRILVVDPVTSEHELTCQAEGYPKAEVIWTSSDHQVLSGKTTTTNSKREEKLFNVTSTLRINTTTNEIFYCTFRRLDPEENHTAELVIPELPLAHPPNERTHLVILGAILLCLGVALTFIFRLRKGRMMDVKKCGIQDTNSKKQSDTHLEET", "experiment": "flow cytometry on CHO-K1 cells expressing human PD-L1", "method": "Human PD-L1-expressing cells W315-CHOK1.hPro1.C11 (×10^5 cells/well) and 4-1BB-expressing cells WBP342-CHO-K1.hPro1.C1 were incubated with various concentrations of testing antibodies at 4° C. for 1 hour. […] The cells were then washed and resuspended in DPBS with 1% BSA. MFI of the cells was measured by a flow cytometer and analyzed by FlowJo.\nAs shown in FIG. 7 and Table 7, compared to the reference molecule, the T8311 variants kept the target binding ability very well."}
{"binder": "B1", "values": [{"measurement": "EC50", "result": 0.23, "unit": "nM"}, {"measurement": "Top (MFI)", "result": 8120, "unit": "MFI"}]}
